{
  "source": "paper PMC4994250",
  "about": "“A new mode of SAM domain mediated oligomerization observed in the CASKIN2 neuronal scaffolding protein” (Cell Communication and Signaling : CCS, 2016)",
  "proteins": {"B1": {"name": "human CASKIN2 SAM1-SAM2 tandem (483-634), wild type (domain or fragment)", "chain": "not shown", "modifications": "selenomethionine in the protein used for crystals; uniform 15N label in the NMR samples", "notes": "CASKIN2, human, tandem SAM domains SAM1-SAM2, residues 483-634 of Uniprot Q8WXE0; Cloned into BamHI/XhoI of pET28; the vector probably adds an N-terminal His tag with linker residues (surmise); also called CASKIN2 SAM tandem; wild type SAM tandem; source: E. coli BL21:DE3, purified (Nickel-NTA, gel filtration)"}},
  "key": {"[1]": {"molecular_target": "the molecule itself", "assay": "AUC; sedimentation velocity, 300 mM NaCl, 20 mM sodium phosphate pH 7.8, 20 °C, 50,000 rpm; 10 and 34 μM loading, Kd fitted from the 34 μM experiment; monomer-dimer equilibrium (dimer to monomers)"}, "[2]": {"molecular_target": "the molecule itself", "assay": "AUC; sedimentation velocity, 150 mM NaCl, 20 mM sodium phosphate pH 7.8, 20 °C, 50,000 rpm; 10 and 34 μM loading, Kd fitted from the 34 μM experiment; monomer-dimer equilibrium (dimer to monomers)"}, "[3]": {"molecular_target": "the molecule itself", "assay": "crystal structure; selenomethionine labeled SAM1-SAM2, 0.6 mM in T300 buffer, hanging drop at 4 °C, 0.1 M Tris pH 7.5, 2.4 M sodium formate, 5 mM DTT; SAD, 2.75 Å; one tandem in the asymmetric unit"}},
  "data": [
    {"protein": "B1", "values": [
      {"measurement": "Kd", "setting": "[1]", "result": 27.6, "unit": "µM"},
      {"measurement": "Kd", "setting": "[2]", "result": 52.9, "unit": "µM"},
      {"measurement": "stoichiometry N", "setting": "[3]", "result": 2}
    ]}
  ]
}
